Results published in patent US6656716.

Assays:
[1] = biological target: T1, PAK5 activation loop peptide # 3, (C)RRKSLVGTPYWMAPE, aa 471-485 (not fully specified)
T1 chain: CRRKSLVGTPYWMAPE

[2] = biological target: T2, KHS1 activation loop peptide # 4, KRKSFIGTPYWMAPE, aa 171-185 (not fully specified)
T2 chain: KRKSFIGTPYWMAPE

[3] = biological target: T3, ZC1 activation loop peptide # 7, RRNTFIGTPYWMAPE, aa 184-198 (SEQ ID 125) (not fully specified)
T3 chain: RRNTFIGTPYWMAPE

[4] = biological target: T4, ZC1 activation loop peptide # 8, RRNTFIGTPYWMAPE, aa 184-198 (SEQ ID 126)
T4 chain: RRNTFIGTPYWMAPE

[5] = biological target: T5, STLK2 activation loop peptide # 5, KRNTFVGTPFWMAPE, aa 175-189 (not fully specified)
T5 chain: KRNTFVGTPFWMAPE

[6] = biological target: T6, PAK5 activation loop peptide # 1, (C)RRKSLVGTPYWMAPE, aa 471-485
T6 chain: CRRKSLVGTPYWMAPE

[7] = biological target: T7, SULU1 activation loop peptide # 6, PANSFVGTPYWMAPE, aa 174-188 (not fully specified)
T7 chain: PANSFVGTPYWMAPE

[8] = biological target: T8, PAK5 activation loop peptide # 2, (C)RRKSLVGTPYWMAPE, aa 471-485
T8 chain: CRRKSLVGTPYWMAPE

[9] = biological target: T9, STLK4 activation loop peptide # 9, RNKVRKTFVGTPCWMAPE, aa 66-83 (not fully specified)
T9 chain: RNKVRKTFVGTPCWMAPE

B1: human PAK5 (protein)
chain: MFGKRKKRVEISAPSNFEHRVHTGFDQHEQKFTGLPRQWQSLIEESARRPKPLVDPACITSIQPGAPKTIVRGSKGAKDGALTLLLDEFENMSVTRSNSLRRDSPPPPARARQENGMPEEPATTARGGPGKAGSRGRFAGHSEAGGGSGDRRRAGPEKRPKSSREGSGGPQESSRDKRPLSGPDVGTPQPAGLASGAKLAAGRPFNTYPRADTDHPSRGAQGEPHDVAPNGPSAGGLAIPQSSSSSSRPPTRARGAPSPGVLGPHASEPQLAPPACTPAAPAVPGPPGPRSPQREPQRVSHEQFRAALQLVVDPGDPRSYLDNFIKIGEGSTGIVCIATVRSSGKLVAVKKMDLRKQQRRELLFNEVVIMRDYQHENVVEMYNSYLVGDELWVVMEFLEGGALTDIVTHTRMNEEQIAAVCLAVLQALSVLHAQGVIHRDIKSDSILLTHDGRVKLSDFGFCAQVSKEVPRRKSLVGTPYWMAPELISRLPYGPEVDIWSLGIMVIEMVDGEPPYFNEPPLKAMKMIRDNLPPRLKNLHKVSPSLKGFLDRLLVRDPAQRATAAELLKHPFLAKAGPPASIVPLMRQNRTR
substrate (in vitro kinase assay) [1]: no
substrate (in vitro kinase assay) [2]: yes
substrate (in vitro kinase assay) [3]: poor
substrate (in vitro kinase assay) [4]: poor
substrate (in vitro kinase assay), note [4]: Better than 7
substrate (in vitro kinase assay) [5]: poor
substrate (in vitro kinase assay) [6]: yes
substrate (in vitro kinase assay), note [6]: Equally well as MBB
substrate (in vitro kinase assay) [7]: poor
Km [8]: High Km for PAK5 (1-10 µM)
substrate (in vitro kinase assay) [8]: yes
substrate (in vitro kinase assay) [9]: poor
